Laboratory results taken from the nanobody polyreactivity screen of Harvey et al. (2022).

Experiment: yeast display, Sf9 membrane polyspecificity reagent, FACS + sequencing; frameworks hold sequencing errors
Procedure, shortened: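 Sorting gates, low and high (top ~1%), were placed on anti-HA fluorescence to track expression and on streptavidin fluorescence to track reagent binding. A clone's polyreactivity label is taken from the gate it came out of. The reagent was 10% biotinylated, detergent-solubilized Sf9 membrane, applied for 1 hour at 4 °C to galactose-induced yeast display cells.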

In the case of “QVQLVESGGGLVQAGGSLRLSCAASGSIFVYNPMGSYREPPGKERELVAAISQRGGSTYYADSVKGRFTISRDNANNTVYLQMYSLKPEDTAVYYCAAGPGDSGDDYWGQGTQVTVSS”, the “polyreactivity (PSR sort gate)” value was “low polyreactivity”.

With “QVQLVESGGGLLQAGGSLRLSCAASGFTFATYAMGWYRQAPGKERELVAAISTSGGSTYYADSVKGRFTISRDNAKNTVYLQMNSLKPEDTAVYYCNAVSRSYRYAGVPGFHYDYWGQGTQVTVSS” the “polyreactivity (PSR sort gate)” value was “high polyreactivity”.

With “QVQLVESGGGLVQAGGSLRLSCAASGSTFYYYTMGWYRQAPGKERELVARITRSGGTTYYADSVKGRFTISRDNAKNTVYLQMNSLKPEDTAVYYCAARRYGYTSITWYDYWGQGTLVTVSS” the “polyreactivity (PSR sort gate)” value was “high polyreactivity”.

For “QVQLVESGGGLVQAGGSLRLSCAASGRIFGYYTMGWYRQAPGKERELVAAINGRGTSTYYADSVKGRFTISRDNAKNTVYLQMNSLKPEDTAVYYCAAGGWGPTRAYDYWGQGTQVTVSS”, the “polyreactivity (PSR sort gate)” value was “high polyreactivity”.

For “QVQLVESGGGLVQAGGSLRLSCAASGFTLKYYAMGWYRQAPGKERELVAAITQRGGSTYADSVKGRFTISRDNAKNTVYLQMNSLKPEDTAFYFCAASSAKYRLYGGYDYWGQGTQVTVSS”, the “polyreactivity (PSR sort gate)” value was “high polyreactivity”.

With “QVQLVESGGGLVQAGGSLRLSCAASGCTFPLYAMGWYRPAPGKERELVAAITSGGGNTYYADSVKGRFTISRDNAKNTVYLQMNSLKPEDTAVYYCAAVGGYKSYYSYEYDYWGQGTQVTVSS” the “polyreactivity (PSR sort gate)” value was “low polyreactivity”.

In the case of “QDQLVESAGGLVQAGGSLRLSCAASGSTFVRNAMGWYRQEPGKERELVAAISVDGSSTYYADSVKGRFTISRDIAKNTVYLQMNSLKPEVTAVYYCNADWDYRDFYAITYDFWGQGTQVTVSS”, the “polyreactivity (PSR sort gate)” value was “low polyreactivity”.

In the case of “QVQLVESGGGLVQAGGSLRLSCAASGRIFVHYAMGWYRQAPGKERELVAAISWNGGRTFYADSVKGRFTISRDNEKYTVYLQMNSLKPEDTAVYYCAALSRYSLDYWGQGTQVTVSS”, the “polyreactivity (PSR sort gate)” value was “high polyreactivity”.

For “QVQLVESGGGLVQAGGRLRLSCAASGRIFSDYAMGWYRQAPGKERELVAVITRGGDNTHYADSVKGRFSISRDNAKNTVYLQMNSLKAEDTAVYYCAAGFVYFRLRRYFWRDYCGQGTQVTVSS”, the “polyreactivity (PSR sort gate)” value was “low polyreactivity”.

For “QVQLVESGGGLVQAGGSLRLSCAASGFIFSYYAMGWYRQAPGKERELVAAITDSGGSTYYADSVKGRFTISRDNAKNTVYLQMNSLKPEDTAVYYCAATYWWAYVWAYSHVKSTNDYWGQGTQVTVSS”, the “polyreactivity (PSR sort gate)” value was “low polyreactivity”.

For “QVQLVESGGGLVQAGGSRRLSCAASGSTFGWYVMGWYRPAPGKDREFVAAIDNSGGDTYYADSLKGRFTISRDTAKNTVYLQMNSLKPEDTAVYYCDDEAYTRASFENDYWGQGTQVTVSS”, the “polyreactivity (PSR sort gate)” value was “low polyreactivity”.

For “QVQLVESGGGVVQAGGSLRLTCAASVSIFASNAMGWYRQAPGKEREFVAAITWRTDRTYYADSVKGRFTISRDNAKNTVYLQMNSLKPEDTAVYYCAADLLPLYDYWGQGTQVTVSS”, the “polyreactivity (PSR sort gate)” value was “high polyreactivity”.

In the case of “QVQLVESGGGLVQAGGSLRLSCAASGSTFAAYAKGWYRQAPGKERELVAAISRSGGTTYYADSVKGRFTISRDNAKNTVYLQMNSLKPEDTAVYYCAAEQWYDNYLEYDYWGQGTQVTVSS”, the “polyreactivity (PSR sort gate)” value was “high polyreactivity”.

With “QVQLVESGGGLVQAGGSLRLSCAASGSTFYVNAMGWNRQAPGKEREFVAAISWSGGSTYYADSVKGRFTISRDNAKNTVYLQMNSLKPEDTAVYYCAADRVRKDGVLFDYWGQGTQVTVSS” the “polyreactivity (PSR sort gate)” value was “high polyreactivity”.

In the case of “QVQLVESGVGLVQAGGSLRLSCAASGRIFRGYAMGWYRQAPGKEREFVAAISWSGGDTYYADSVKGRFTISRDNAKNTVYLQMNSLKAEDTAVYYFATEYRLIPGPFVWPYDYWGQGTQVTVSS”, the “polyreactivity (PSR sort gate)” value was “high polyreactivity”.

In the case of “QVQLVESGGGLVQAGGSLRLSCAASGNIFWAYAMGWYRQAPGKERELVAAISGRSGSTYYADSVKGRFTISRDNAKNTVYLQMNSLKPEDTAVYYCNARPRYTSGGYDYWGQGTQVTVSS”, the “polyreactivity (PSR sort gate)” value was “low polyreactivity”.

For “QVQLVESGGGLVQAGGSLRLSCAASGLIFEYYAMGWYRQAPGKERELGAAISGSGGSTYYADSVKGRFTISRDNAKNTVSLQMNSRKPEDTAVDYCNVVGYRWSEFDYWGQGTQVTVSS”, the “polyreactivity (PSR sort gate)” value was “low polyreactivity”.

With “QVQLVESGGGLVQAGGSLRLSCAASGSTFVGYTMGWYIQAPGKERELVAAISRGGGSTYYADSVKGRFTISRDNAKNTVYLQMNSLKPEDTAVYYCAATGFYARLSSIYYYWGQGTQVTVSS” the “polyreactivity (PSR sort gate)” value was “high polyreactivity”.

In the case of “QVQHVESGGGLVQAGGSLRLSCAASGSIFTSYAMGWSSQAPGKERELVAAITSTGGSTYYADSVKGRFTISRDNAKNTVYLQMNSLKPEDTAVYYCNADGGTPYDYWGQGTQVTVSS”, the “polyreactivity (PSR sort gate)” value was “low polyreactivity”.

For “QVQLVESGGCLVQAGGSLRLSCAASGSISTNYAMGWYRQAPGKERELVAAISDSSGSTYYADSVKGRFTISRDNAKNTVYLQMNSLKPVDTAVYYCNADSQGGRDVHYDYEYYYWGQGTQVTVSS”, the “polyreactivity (PSR sort gate)” value was “low polyreactivity”.

In the case of “QVQLVESGGGLVQAGGSLRLSCAASGSTFENNVMGWYRQAPGKERELVATITWGDGSTSYADSVKGRFTISRDNAKNTVYLQMNSLKPEDTAVYYCAADDRIGYGKNKDHDYWGQGTQVTVSS”, the “polyreactivity (PSR sort gate)” value was “low polyreactivity”.

In the case of “QVQLVETGGGLVQAGGSLRLSCAASGRIFHRNAMGWYRQAPGKEREFVAGITTGSSTYYADSVKGRFTISRDNAKNTVYLQMNSLKPEDTAVYYCAARYFIGSYRPRFDYWGQGTQVTVSS”, the “polyreactivity (PSR sort gate)” value was “high polyreactivity”.

With “QVQLVESGGGLVQAGGSHRLSCAASGFTINFYSMGWYRQAPGKERELVAAITASGGGSTYYADSVKGRFTISRDNAKNTVYLQMNSLKPEDTAVYYCNADYTGSFYTYDYWGQGTQVTVSS” the “polyreactivity (PSR sort gate)” value was “low polyreactivity”.

For “QVQLVESWGGLVQPGGSLRLRCAASGLIFGRNAMGWYRQAPGKERELVAAISWSGGSTYYADSVKGRFTISRDNAKNTVYLQMNSLKPEDTAVYYCYRYRYYGSEDDYWGQGTQVTVSS”, the “polyreactivity (PSR sort gate)” value was “high polyreactivity”.

With “QVQLVESGGGLVQAGGSLRLSCAASGSTFVTYAMGWYRQAPGKERELVAAITTSGGSTYYADSVKGRFTISRANAMNTVYLQMNSLKPEDTAVYYCIAGFEYTQEYDYWGQGTQVTVSS” the “polyreactivity (PSR sort gate)” value was “low polyreactivity”.

With “QVQLLESGGGLVQAGGSLRLSCAPSGRTFARYDMAWYTQAPGKERELVAVISRTGSTYYADSVKGSFTISRDNEKITVYLLMNSLKPEDTAVYYCATVYVYWGQGTQVTVSS” the “polyreactivity (PSR sort gate)” value was “high polyreactivity”.

For “QVQLVESGGGLVQAGGSLRLSCAASGFTSAYNAMGWYRQAPGKERELVATISFRGSSTYYADSVKGRFTISRDNAKNTVYLQMNSQKPEDTAVYYCAADPYDARAVSEPVFFGHYDFWGQGTQVTVSS”, the “polyreactivity (PSR sort gate)” value was “low polyreactivity”.

For “QVQLQESGGGLVQAGGSLRLSCAASGNIFSAGGMGWYRQAPVNERELVAGIGTGTSTNYADSVKGRFTISRDNAKNTVYLQMNSLKPEDTAVYYCAAAYYSGLSHWYWGQGTQVTVSS”, the “polyreactivity (PSR sort gate)” value was “low polyreactivity”.

With “QVQLVESGGGLVQAGGSLRLSCAASGRTFRNYAMGWYRQAPGKERELVAAISSGGRTNYADSVKGRFTISRDNAKNTVYLQMNSLKPEDTADYYCAVRRGAFSTYPGYNYWGQGTQVTVSS” the “polyreactivity (PSR sort gate)” value was “high polyreactivity”.

With “QVQLVESGGGLVQAGGSLRLSCAASGRTLYRNAMGWYRQSPWKDREFVSRITWSGASTYYADSVKGRFTISRDNAKNTVYLQMNSLKPEDTAVYYCAAQYLSRRYGPYYTYNYWGQGTQVTVSS” the “polyreactivity (PSR sort gate)” value was “high polyreactivity”.

For “QVQLVESGGGLVQAGGSIRISCAASGITFIDYTMGWYRQAPGKERELVAVITKTGYRTYYADSVKGRFTISRDNANNSDYLQMNSLNRSDSAVYYCNALYYIHYYEGYGYWGQGTQVTVSS”, the “polyreactivity (PSR sort gate)” value was “high polyreactivity”.

With “QVQLVESGGGLVQAGGSLLLSCAASGSIFGWYAMGWYRQAPGKERELVAAISSSDGSTYYADSVKGRFTISRDNPKNTVYLQMNSLKPEDTAVYYCATDSAFTYAQYDYWGQGTQVTVSS” the “polyreactivity (PSR sort gate)” value was “low polyreactivity”.

For “QVQLVESGGGLVQAGGSLRLSCAASGGIFTINAMGWYRQAPGKERELVAAITYGGTSTNYADSVKGRFTISRDNAKNTVYLQMNSLKPEDTAVYYCAKLPNLPGDYWGQGTQVTVSS”, the “polyreactivity (PSR sort gate)” value was “low polyreactivity”.

With “QVQLVESGGGLVQARGSLRLSCAASGSIFSIYAMGWYRPAPGTERELVASITRSSGRTYYADSVKGRFTISRDNAKNTVYLQMISLKPEDTAVYYCAKDYIPLALDADDYWGQGTQVTVSS” the “polyreactivity (PSR sort gate)” value was “low polyreactivity”.

For “QVQLVESGGGLVQAGGSLRLSCAASGITFYPYTLGWYRQAPGKERELVASISTSGTNYADSVKGRFTISRDNAKNTVYLQMNSLKPEDTAVYYCAADIWSYYRSTHVDSWGQGTQVTVSS”, the “polyreactivity (PSR sort gate)” value was “low polyreactivity”.

In the case of “QVQLVESGGGLVQAGGSLRLSCAASGLTFGDYTMGWYRQAPGKERELVAAITWSGASTYYADSVKGRFTISRDNAKNTVYLEMNSLKPEDTAGYYCAAERTPSYRAYDYWGQGTQVTVSS”, the “polyreactivity (PSR sort gate)” value was “low polyreactivity”.

For “QVQLVESGGGLVQAGGSLSLSCAASASTFRYYTMGWYRQAPGKERELVAAISWTGGGTYYADSVKGRFTISRDNAKNTVYLQMNSLKPEDTAVYYCAASYYYELFRFDYWGQGTQVTVSS”, the “polyreactivity (PSR sort gate)” value was “high polyreactivity”.

With “QVQLVESGGGLVQAGGSLRLTCAASGSTFINYAMGWYRQAPGKERELVAAYADSVKGRFTISRDNAKNTVYLQMNSLKPEDTAVYYCNAVTGEWGQGTQVTVSS” the “polyreactivity (PSR sort gate)” value was “low polyreactivity”.

For “QVQLVESGGGLVQAGGSLRLSCAASGLTFLYYAMGWYRQAPGKERELVAAITGSGGTTNYADSVKGRFTISRDNAKNTVYLQMNSLKPEDTAVYYCAARGRKYYTSLGYYYWGQGTQVTVSS”, the “polyreactivity (PSR sort gate)” value was “high polyreactivity”.

With “QVQLVESGGGLVQAGGSLRLSCDASGRIFSENAMGWYRQAPGKERELVDAITGNGGDTYYADSVKGRFTISRDNAKNTVYLQMNSLKPEDTAVYYCAAVTGGLGGDYWGQGTQVTVSS” the “polyreactivity (PSR sort gate)” value was “low polyreactivity”.

In the case of “QVQLVESGGGFVQAGGSLRLSCAASGYTLRIYAMGWYRQAPGKERELVAAISRSGGRTFYADSVKGRFTISRDNAKNTVYLQMNSLKPEDSAVYYCAAVPRSYDTGRMDYWGQGTQVTVSS”, the “polyreactivity (PSR sort gate)” value was “high polyreactivity”.

For “QVQLVESGGGLVQPGGSLRLSCAASGRTLHYNVMGWYRQAPGKEREFVAAITKSGGITYYADSVKGRFTISRDNAKNTVYLQMNSLKPEETAVDYCAADSPSWSWRISWSRYDYWGQGTQVTVSS”, the “polyreactivity (PSR sort gate)” value was “low polyreactivity”.

In the case of “QVQLVESGGGLVQAGGSLRLSCAASGSTFPLYAMGWYRQAPGKERELVAAISSSGGSTYYADSVKGRFTISRDNAKNTVYLQMNNLKPEDTAVYYCAAAPTSYSGYGYWGQGTQVTVSS”, the “polyreactivity (PSR sort gate)” value was “low polyreactivity”.
